Experimental data: US20120108492A1 (REGENTS OF THE UNIVERSITY OF COLORADO, published 2012)

Biological target: wild-type recombinant EBV gp350 (residues 1-470 of EBV gp350/220, BCCP, myc, hexa-histidine) (Epstein-Barr virus (B95-8); Escherichia …, UniProt P03200 1-470; P0ABD8 70-156)
Test: ELISA, wild-type gp350 on plate, MBP-CR2 SCR1-2 mutant in solution

Sequence of wild-type recombinant EBV gp350 (residues 1-470 of EBV gp350/220, BCCP, myc, hexa-histidine) (P03200 1-470, tags or fused parts left off): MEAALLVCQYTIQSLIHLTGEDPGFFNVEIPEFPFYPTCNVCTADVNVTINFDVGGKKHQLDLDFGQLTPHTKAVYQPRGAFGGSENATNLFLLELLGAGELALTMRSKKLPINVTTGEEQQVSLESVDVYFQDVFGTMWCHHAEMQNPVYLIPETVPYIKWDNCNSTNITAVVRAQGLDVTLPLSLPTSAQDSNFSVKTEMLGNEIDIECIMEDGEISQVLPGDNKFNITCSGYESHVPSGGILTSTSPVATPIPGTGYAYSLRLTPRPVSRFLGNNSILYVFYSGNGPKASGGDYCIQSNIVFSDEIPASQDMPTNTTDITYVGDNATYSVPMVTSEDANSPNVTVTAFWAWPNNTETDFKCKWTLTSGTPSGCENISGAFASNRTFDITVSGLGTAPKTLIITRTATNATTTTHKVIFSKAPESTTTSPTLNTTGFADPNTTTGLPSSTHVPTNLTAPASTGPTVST

B1: MBP-CR2 SCR1-2 K67A (receptor)
chain: ISCGSPPPILNGRISYYSTPIAVGTVIRYSCSGTFRLIGEKSLLCITKDKVDGTWDKPAPKCEYFNAYSSCPEPIVPGGYKIRGSTPYRHGDSVTFACKTNFSMNGNKSVWCQANNMWGPTRLPTCVSVFPLE
notes: not shown: MBP tag encoded by pMAL-p2x and the vector linker between MBP and CR2
- decrease in EBV gp350 binding relative to wild-type: ~20%
